Laboratory results: US20150094211, “POLYMERASE COMPOSITIONS, METHODS OF MAKING AND USING SAME” (LIFE TECHNOLOGIES CORPORATION, published 2015)

Key:
Settings in all cases: label: fluorescein-dT at N (position 34); hairpin with 5' overhang
[1] = target: T1, Bst DNA polymerase D480R (LR1; D775R in full-length numbering) (D480R); assay: fluorescence dissociation with excess hairpin oligo 173 competitor (SEQ 22); 30 mM Tris pH 7.5, 20 mM NaCl; mutant dissociates slower
T1 chain: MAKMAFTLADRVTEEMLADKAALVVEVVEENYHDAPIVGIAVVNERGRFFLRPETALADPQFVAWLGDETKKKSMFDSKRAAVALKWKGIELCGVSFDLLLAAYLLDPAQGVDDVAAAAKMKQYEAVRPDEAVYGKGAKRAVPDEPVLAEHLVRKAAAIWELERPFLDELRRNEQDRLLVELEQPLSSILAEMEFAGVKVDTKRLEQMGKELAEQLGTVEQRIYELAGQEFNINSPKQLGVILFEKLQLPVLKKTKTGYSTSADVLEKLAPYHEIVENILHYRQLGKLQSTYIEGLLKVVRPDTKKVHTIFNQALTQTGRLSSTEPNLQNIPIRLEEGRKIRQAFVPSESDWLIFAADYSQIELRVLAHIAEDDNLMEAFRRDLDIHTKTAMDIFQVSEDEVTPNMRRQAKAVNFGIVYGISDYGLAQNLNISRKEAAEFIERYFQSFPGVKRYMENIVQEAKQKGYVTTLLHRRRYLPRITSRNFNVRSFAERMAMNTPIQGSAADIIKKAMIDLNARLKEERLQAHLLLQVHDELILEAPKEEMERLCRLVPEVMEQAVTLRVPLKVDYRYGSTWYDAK
Method: (§1) To perform the assay, reactions (75 μl) containing 30 mM Tris (pH 7.5), 20 mM NaCl, 50 nM oligo 221, and ˜10-200 nM partially polymerase samples (prepared according to Example 1) were assembled in 96-well plates. Baseline readings were then taken on the spectrophotometer using 490 nm excitation and 525 nm emission wavelengths. The 173 competitor oligo (2 μM final concentration) was then rapidly added to each well and plates were rapidly returned to the spectrophotometer for readings every 30 seconds for 5 minutes. The dissociation rate was calculated by fitting the data to a one-phase exponential decay equation using PrismGraph® according to the following formula: […]
(§2) Various exemplary mutations were introduced via site-directed mutagenesis into exemplary reference polymerases to generate modified polymerases. In this example, reference polymerase SEQ ID NO: 2 was modified to contain a further amino acid mutation (D480R). Reference polymerase SEQ ID NO: 15 was also modified to contain a further amino acid mutation (D732R). Additionally, reference polymerase SEQ ID NO: 18 was modified to contain amino acid mutation (D505R). The modified polymerases were sequence verified, and expressed essentially according to the procedure of Example 1. The modified polymerases were then assayed to measure dissociation rate constant essentially according to the procedure of Example 2.

[2] = target: Klenow fragment D505R (LR1) (UniProt P00582 SEQ:2-606, D505R); assay: as above
Method: as §1, §2

Bst DNA polymerase G425R = target: T2, Bst DNA polymerase G425R (G425R); assay: dissociation time constant at varying salt; values only in figure
T2 chain: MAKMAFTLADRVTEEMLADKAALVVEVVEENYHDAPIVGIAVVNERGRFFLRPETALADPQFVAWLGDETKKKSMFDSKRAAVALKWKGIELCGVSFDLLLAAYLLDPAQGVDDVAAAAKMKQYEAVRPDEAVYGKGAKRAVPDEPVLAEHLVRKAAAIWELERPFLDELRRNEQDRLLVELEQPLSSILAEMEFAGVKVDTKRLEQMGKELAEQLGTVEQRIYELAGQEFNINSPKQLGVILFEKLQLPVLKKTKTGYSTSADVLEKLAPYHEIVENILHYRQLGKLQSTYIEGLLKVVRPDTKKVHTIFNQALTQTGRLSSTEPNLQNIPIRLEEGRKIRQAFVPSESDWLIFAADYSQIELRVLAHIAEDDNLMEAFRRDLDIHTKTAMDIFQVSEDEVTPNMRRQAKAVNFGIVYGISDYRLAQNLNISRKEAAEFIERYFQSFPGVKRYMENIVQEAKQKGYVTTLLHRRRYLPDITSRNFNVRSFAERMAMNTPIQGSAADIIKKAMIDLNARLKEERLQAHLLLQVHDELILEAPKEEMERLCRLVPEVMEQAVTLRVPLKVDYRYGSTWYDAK
Method: (§3) Dissociation is measured by the decrease in fluorescence that occurs when the Bst polymerase dissociates from the template. Dissociation is initiated by adding a vast excess of unlabeled, competitor DNA (hairpin oligo 173) having the following nucleotide sequence:
as §1

Bst DNA polymerase D144K = target: T3, Bst DNA polymerase D144K (D144K); assay: as above
T3 chain: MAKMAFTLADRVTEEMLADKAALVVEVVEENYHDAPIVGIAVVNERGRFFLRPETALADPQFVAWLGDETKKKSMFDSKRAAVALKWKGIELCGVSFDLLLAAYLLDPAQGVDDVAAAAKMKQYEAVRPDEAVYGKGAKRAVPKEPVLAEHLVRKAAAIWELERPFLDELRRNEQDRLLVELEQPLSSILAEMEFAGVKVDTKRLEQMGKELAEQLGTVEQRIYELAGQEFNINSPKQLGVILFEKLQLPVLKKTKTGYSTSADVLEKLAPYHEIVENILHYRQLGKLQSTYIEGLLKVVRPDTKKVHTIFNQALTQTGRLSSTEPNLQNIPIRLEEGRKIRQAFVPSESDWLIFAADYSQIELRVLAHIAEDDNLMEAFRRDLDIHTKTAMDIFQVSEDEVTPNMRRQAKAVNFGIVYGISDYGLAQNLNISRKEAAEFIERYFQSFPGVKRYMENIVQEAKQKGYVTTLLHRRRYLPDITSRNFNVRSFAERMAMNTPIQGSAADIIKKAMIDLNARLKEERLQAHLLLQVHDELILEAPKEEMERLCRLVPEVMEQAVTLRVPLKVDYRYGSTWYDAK
Method: as §3, §1

[3] = target: T4, Bst DNA polymerase large fragment (Bst 1.0, reference); assay: reference; dissociates 4.7-fold faster than D480R; rate constant only in figure
T4 chain: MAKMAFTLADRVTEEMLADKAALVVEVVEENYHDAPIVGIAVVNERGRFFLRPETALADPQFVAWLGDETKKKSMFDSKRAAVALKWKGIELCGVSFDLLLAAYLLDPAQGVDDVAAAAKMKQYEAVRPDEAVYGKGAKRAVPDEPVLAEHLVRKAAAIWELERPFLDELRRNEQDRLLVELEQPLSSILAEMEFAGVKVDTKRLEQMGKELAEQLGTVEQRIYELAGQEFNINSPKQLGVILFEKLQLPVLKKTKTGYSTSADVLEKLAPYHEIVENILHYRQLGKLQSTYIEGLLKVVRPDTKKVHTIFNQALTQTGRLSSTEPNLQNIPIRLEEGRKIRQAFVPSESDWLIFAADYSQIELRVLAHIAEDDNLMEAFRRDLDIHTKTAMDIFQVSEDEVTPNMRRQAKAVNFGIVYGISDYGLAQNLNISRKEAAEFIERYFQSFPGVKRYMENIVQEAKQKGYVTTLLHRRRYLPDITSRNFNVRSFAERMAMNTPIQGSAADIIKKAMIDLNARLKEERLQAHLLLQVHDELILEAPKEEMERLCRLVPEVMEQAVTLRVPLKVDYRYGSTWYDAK

Taq DNA polymerase E745Q = Taq DNA polymerase E745Q (UniProt P19821 SEQ:1-832, E745Q); assay: fluorescence dissociation with excess hairpin oligo 173 competitor (SEQ 22); mutant dissociates slower
Method: as §1
(§4) Various exemplary mutations were introduced via site-directed mutagenesis into an exemplary reference polymerase (wild-type Taq DNA polymerase SEQ ID NO: 15) to generate a series of modified Taq DNA polymerases. In this example, reference polymerase, SEQ ID NO: 15 was modified to contain a single amino acid mutation selected from D732R, E745Q or E471K. Each modified polymerase was sequence verified, and expressed essentially according to Example 1. The modified polymerases were then assayed to measure dissociation rate constant essentially according to Example 2.

Taq DNA polymerase E471K = Taq DNA polymerase E471K (UniProt P19821 SEQ:1-832, E471K); assay: as above
Method: as §1, §4

[4] = target: Klenow fragment (wild type) (UniProt P00582 SEQ:2-606); assay: reference; dissociates 13-fold faster than D505R; rate constant only in figure
[5] = target: Taq DNA polymerase D732R (LR1 Taq) (UniProt P19821 SEQ:1-832, D732R); assay: fluorescence dissociation with excess hairpin oligo 173 competitor (SEQ 22); 30 mM Tris pH 7.5, 20 mM NaCl; mutant dissociates slower
Method: as §1, §4

[6] = target: T5, Bst DNA polymerase F448K (labelled 488K in the text for FIG. 2) (F448K); assay: dissociation time constant at varying salt; values only in figure; mutation printed as 488K and F448K
T5 chain: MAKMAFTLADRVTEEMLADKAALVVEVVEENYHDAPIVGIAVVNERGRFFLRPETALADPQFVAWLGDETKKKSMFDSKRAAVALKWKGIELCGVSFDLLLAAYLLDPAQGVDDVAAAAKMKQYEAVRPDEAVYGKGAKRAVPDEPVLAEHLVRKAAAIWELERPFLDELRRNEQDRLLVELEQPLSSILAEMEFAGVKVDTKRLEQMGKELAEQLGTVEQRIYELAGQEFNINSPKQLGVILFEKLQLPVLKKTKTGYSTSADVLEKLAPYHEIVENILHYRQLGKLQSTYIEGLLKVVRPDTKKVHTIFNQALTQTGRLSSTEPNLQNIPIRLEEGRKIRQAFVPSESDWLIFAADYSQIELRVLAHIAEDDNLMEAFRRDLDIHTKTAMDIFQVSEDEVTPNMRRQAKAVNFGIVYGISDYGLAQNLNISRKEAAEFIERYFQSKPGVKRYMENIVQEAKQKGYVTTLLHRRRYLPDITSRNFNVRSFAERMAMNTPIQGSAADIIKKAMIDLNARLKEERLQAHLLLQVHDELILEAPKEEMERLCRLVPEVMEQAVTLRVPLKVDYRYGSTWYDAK
Method: as §3, §1

Taq DNA polymerase E745Q, sequence (P19821 whole entry E745Q): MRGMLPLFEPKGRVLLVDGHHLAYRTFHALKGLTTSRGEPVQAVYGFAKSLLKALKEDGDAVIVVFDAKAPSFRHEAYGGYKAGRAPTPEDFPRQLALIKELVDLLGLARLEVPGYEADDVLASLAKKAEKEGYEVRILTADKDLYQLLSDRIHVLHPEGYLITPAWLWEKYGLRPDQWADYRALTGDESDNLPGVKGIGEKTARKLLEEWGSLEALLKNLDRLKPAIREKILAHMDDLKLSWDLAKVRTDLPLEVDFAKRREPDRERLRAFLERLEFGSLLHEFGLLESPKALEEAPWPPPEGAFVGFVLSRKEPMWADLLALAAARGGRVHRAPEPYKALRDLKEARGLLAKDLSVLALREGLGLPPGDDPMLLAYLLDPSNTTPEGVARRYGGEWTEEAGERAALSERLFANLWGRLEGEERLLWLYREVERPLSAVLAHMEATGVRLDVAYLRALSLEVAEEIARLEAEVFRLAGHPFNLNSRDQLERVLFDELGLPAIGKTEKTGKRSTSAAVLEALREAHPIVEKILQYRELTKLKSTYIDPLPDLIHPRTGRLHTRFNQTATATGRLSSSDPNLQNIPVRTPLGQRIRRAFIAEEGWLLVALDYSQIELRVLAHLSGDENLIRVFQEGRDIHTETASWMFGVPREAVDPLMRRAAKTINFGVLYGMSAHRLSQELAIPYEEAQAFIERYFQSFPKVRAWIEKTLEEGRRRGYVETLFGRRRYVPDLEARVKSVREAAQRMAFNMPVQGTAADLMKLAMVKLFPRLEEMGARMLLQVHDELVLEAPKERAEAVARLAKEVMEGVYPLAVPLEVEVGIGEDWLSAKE
Taq DNA polymerase E471K, sequence (P19821 whole entry E471K): as the sequence (P19821 whole entry E745Q) above, with E471K, Q745E counted along it
Taq DNA polymerase D732R (LR1 Taq), sequence (P19821 whole entry D732R): as the sequence (P19821 whole entry E745Q) above, with D732R, Q745E counted along it

TTTTTTTGCAGGTGACAGGTTTTTCCTGTCACCTGC (structured_DNA, [fluorescein-dT at 34]) [oligo 221]
binding signal [1]: 4.7 fold (koff reference/koff mutant)
binding signal [2]: 13 fold (koff wt/koff mutant)
binding result (Bst DNA polymerase G425R): binds
binding result (Bst DNA polymerase D144K): binds
binding result [3]: binds
binding signal (Taq DNA polymerase E745Q): 4.7 fold (koff wt/koff mutant)
binding signal (Taq DNA polymerase E471K): 5 fold (koff wt/koff mutant)
binding result [4]: binds
binding signal [5]: 14.1 fold (koff wt/koff mutant)
binding result [6]: binds
